Laboratory results from article PMC12209930, “A TATA-box-binding protein binds single-stranded DNA in two modes: To poly(G) tracts and to flexible DNA regions”.

T1: gTBP (GST-gTBP) (Giardia intestinalis WB C6 (ATCC 50803), UniProt E2RU70 1-200)
T1 sequence: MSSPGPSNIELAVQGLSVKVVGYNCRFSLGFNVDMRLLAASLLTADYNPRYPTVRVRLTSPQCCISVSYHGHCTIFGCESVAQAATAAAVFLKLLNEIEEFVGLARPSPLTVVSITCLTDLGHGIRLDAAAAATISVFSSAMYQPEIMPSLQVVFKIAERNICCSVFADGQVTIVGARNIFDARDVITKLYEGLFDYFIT

B1: H2B S2 (ssDNA)
DNA: CACCTTCTCAGCGACGCTTCCTCTTTCCCTAGCGACGTGTAACCACGCGATTTGTGCCATC
B2: H4 S2 (ssDNA)
DNA: TACCTCACCTGCTTCTTCTTCGCGTTCCCTCCTCCAGCCCAAACTTGCGCCTCAT
B3: H4 S1 (ssDNA)
DNA: ACACCCACCTGCTTCCTCTGCGCCCTTTCCCTCCAGCTTAGACCATCGCGTTCAT
B4: H2B-a (ssDNA)
DNA: TAGAAGTGCACAGGGGCGCAGATTTCGGCTGCGGAAGGGGGGAAAAAGCGGGCGGGAAAGAAAT
B5: H4-a (ssDNA)
DNA: GTAGGGCGCAGATTTGGGCTAAAAAAGAAGACGCGGGAAGGGGCAAATAAAAATG
B6: H2B S1 (ssDNA)
DNA: ACCCCTCCTTCGCTCGCTCCTTCCTTTCTCCCGCAGCCGAGACTTGCGCTTTACGTGATCC
B7: aGN-a (ssDNA)
DNA: CAATTTGAGCTTCAAAAAATACCGCCAAAAAATGGCAATTCGGTTTTAAAAATG
B8: H2B-b (ssDNA)
DNA: ATTTCTTTCCCGCCCGCTTTTTCCCCCCTTCCGCAGCCGAAATCTGCGCCCCTGTGCACTTCTA
B9: H4-b (ssDNA)
DNA: CATTTTTATTTGCCCCTTCCCGCGTCTTCTTTTTTAGCCCAAATCTGCGCCCTAC

Molecular target: T1, gTBP (GST-gTBP)
Assay: competition; vs H2B-b probe; less well than H2B S1; 10 mM Tris-HCl pH 8.0, 0.15 M NaCl, 0.5 mM TCEP, 5% glycerol, 1 ug/ul BSA, 15 ng/ul salmon sperm DNA, 30 min on ice; probe 0.1 pmol/ul, competitor 200-fold excess
Details: protein: recombinant; tags: N-terminal GST

Binder | binding result
B1 | binds

Molecular target: T1, gTBP (GST-gTBP)
Assay: competition; vs H4-b probe; 10 mM Tris-HCl pH 8.0, 0.15 M NaCl, 0.5 mM TCEP, 5% glycerol, 1 ug/ul BSA, 15 ng/ul salmon sperm DNA, 30 min on ice; probe 0.1 pmol/ul, competitor 200-fold excess
Details: protein: recombinant; tags: N-terminal GST

Binder | binding result
B2 | binds
CCTTCCCGCGTCTTCTTTTTTAGCCCAA (ssDNA) [H4 C] | binds
B3 | binds
CTTTTTTAGCCCAAATCTGCGCCCTAC (ssDNA) [H4 R] | binds
CATTTTTATTTGCCCCTTCCCGCGTCTT (ssDNA) [H4 L] | binds

Molecular target: T1, gTBP (GST-gTBP)
Assay: EMSA; A complex; total binding, Hill fit; 10 mM Tris-HCl pH 8.0, 0.15 M NaCl, 0.5 mM TCEP, 5% glycerol, 1 ug/ul BSA, 15 ng/ul salmon sperm DNA, 30 min on ice; probe 0.1 pmol/ul, competitor 200-fold excess
Details: protein: recombinant; tags: N-terminal GST; label: 5'Cy5

Binder | Kd [µM]
B4 | 7200
B5 | 500

Molecular target: T1, gTBP (GST-gTBP)
Assay: competition; vs H2B-a probe; better than L; 10 mM Tris-HCl pH 8.0, 0.15 M NaCl, 0.5 mM TCEP, 5% glycerol, 1 ug/ul BSA, 15 ng/ul salmon sperm DNA, 30 min on ice; probe 0.1 pmol/ul, competitor 200-fold excess
Details: protein: recombinant; tags: N-terminal GST

Binder | binding result
CTGCGGAAGGGGGGAAAAAGCGGGCGGGAAAGAAAT (ssDNA) [H2B-a Right (R)] | binds
TAGAAGTGCACAGGGGGGCAGATTTCGGCTGC (ssDNA) [H2B-a L1] | binds

Molecular target: T1, gTBP (GST-gTBP)
Assay: competition; vs H4-b and H2B-b probes; 10 mM Tris-HCl pH 8.0, 0.15 M NaCl, 0.5 mM TCEP, 5% glycerol, 1 ug/ul BSA, 15 ng/ul salmon sperm DNA, 30 min on ice; probe 0.1 pmol/ul, competitor 200-fold excess
Details: protein: recombinant; tags: N-terminal GST

Binder | binding result
AAAAAAAAAAAAAAAAAAAAAAAAAAAAAA (ssDNA) [dn 1] | no binding
TTTTTTTTTTTTTTTTTTTTTTTTTTTTTT (ssDNA) [polyT(30)] | binds
AAAATTATACCTATGCCGCCGCACTCAAAA (ssDNA) [dn 14] | binds
AAAAATTATACCTATGCCGCACTCAAAAAA (ssDNA) [dn 15] | binds
AAAAAAAAAAAAAAAAAAAAAAAAAAAAAA (ssDNA) [polyA(30)] | no binding
AAAACTCCTCCCTTGCCGCCGTTCCCAAAA (ssDNA) [dn 8] | binds
AAAACTCCTCCCTTCCCGTTCTTCCCAAAA (ssDNA) [dn 12] | binds
AAAACTCCTCCCTTCCCTTTCTTCCCAAAA (ssDNA) [dn 13] | binds

Molecular target: T1, gTBP (GST-gTBP)
Assay: competition; vs H2B-a probe; 10 mM Tris-HCl pH 8.0, 0.15 M NaCl, 0.5 mM TCEP, 5% glycerol, 1 ug/ul BSA, 15 ng/ul salmon sperm DNA, 30 min on ice; probe 0.1 pmol/ul, competitor 200-fold excess
Details: protein: recombinant; tags: N-terminal GST

Binder | binding result
CTGCGGTTGGGGGGTTTTAGCGGGCGGGAAAGAAAT (ssDNA) [H2B-a R3] | binds

Molecular target: T1, gTBP (GST-gTBP)
Assay: competition; vs H2B-a and H4-a; annealed in Na+ and K+; 10 mM Tris-HCl pH 8.0, 0.15 M NaCl, 0.5 mM TCEP, 5% glycerol, 1 ug/ul BSA, 15 ng/ul salmon sperm DNA, 30 min on ice; probe 0.1 pmol/ul, competitor 200-fold excess
Details: protein: recombinant; tags: N-terminal GST

Binder | binding result
GGGTTAGGGTTAGGGTTAGGGT (structured_DNA) [Human-1 telomere (Hu1)] | binds
TAGGGTAGGGTAGGGTAGGG (structured_DNA) [Giardia telomere (Gia)] | binds
GGGGTTTTGGGGTTTTGGGGTTTTGGGG (structured_DNA) [Oxytricha telomere (Oxy)] | binds

Molecular target: T1, gTBP (GST-gTBP)
Assay: competition; vs H2B-b probe; 10 mM Tris-HCl pH 8.0, 0.15 M NaCl, 0.5 mM TCEP, 5% glycerol, 1 ug/ul BSA, 15 ng/ul salmon sperm DNA, 30 min on ice; probe 0.1 pmol/ul, competitor 200-fold excess
Details: protein: recombinant; tags: N-terminal GST

Binder | binding result
B6 | binds
ATTTCTTTCCCGCCCGCTTTTTCCCCCCTT (ssDNA) [H2B L] | binds
B7 | no binding

Molecular target: T1, gTBP (GST-gTBP)
Assay: EMSA; B1+B2 complexes; Hill n about 2; 10 mM Tris-HCl pH 8.0, 0.15 M NaCl, 0.5 mM TCEP, 5% glycerol, 1 ug/ul BSA, 15 ng/ul salmon sperm DNA, 30 min on ice; probe 0.1 pmol/ul, competitor 200-fold excess
Details: protein: recombinant; tags: N-terminal GST; label: 5'Cy5 (probe)

Binder | Kd [µM]
B8 | 5
B9 | 7
